Data on three molecules can be found in patent US20150361183A1 (IMPERIAL INNOVATIONS, published 2015).

The labels stand for the following.
B1: CFHR234 (recombinant CFHR2 domains 3-4) (other)
chain: EKCGPPPPIDNGDITSFLLSVYAPGSSVEYQCQNLYQLEGNNQITCRNGQWSEPPKCLDPCVISQEIMEKYNIKLKWTNQQKLYSRTGDIVEFVCKSGYHPTKSHSFRAMCQNGKLVYPSCEEK
B2: CFHR1 (complement factor H-related protein 1), purified from serum (other)
chain: EATFCDFPKINHGILYDEEKYKPFSQVPTGEVFYYSCEYNFVSPSKSFWTRITCTEEGWSPTPKCLRLCFFPFVENGHSESSGQTHLEGDTVQIICNTGYRLQNNENNISCVERGWSTPPKCRSTDTSCVNPPTVQNAHILSRQMSKYPSGERVRYECRSPYEMFGDEEVMCLNGNWTEPPQCKDSTGKCGPPPPIDNGDITSFPLSVYAPASSVEYQCQNLYQLEGNKRITCRNGQWSEPPKCLHPCVISREIMENYNIALRWTAKQKLYLRTGESAEFVCKRGYRLSSRSHTLRTTCWDGKLEYPTCAKR
B3: CFHR1345 (recombinant CFHR1 domains 3-5) (other)
chain: TSCVNPPTVQNAHILSRQMSKYPSGERVRYECRSPYEMFGDEEVMCLNGNWTEPPQCKDSTGKCGPPPPIDNGDITSFPLSVYAPASSVEYQCQNLYQLEGNKRITCRNGQWSEPPKCLHPCVISREIMENYNIALRWTAKQKLYLRTGESAEFVCKRGYRLSSRSHTLRTTCWDGKLEYPTCAKR

Sequence of C3b (P01024 749-1663 limits assumed, chain 1 of 2): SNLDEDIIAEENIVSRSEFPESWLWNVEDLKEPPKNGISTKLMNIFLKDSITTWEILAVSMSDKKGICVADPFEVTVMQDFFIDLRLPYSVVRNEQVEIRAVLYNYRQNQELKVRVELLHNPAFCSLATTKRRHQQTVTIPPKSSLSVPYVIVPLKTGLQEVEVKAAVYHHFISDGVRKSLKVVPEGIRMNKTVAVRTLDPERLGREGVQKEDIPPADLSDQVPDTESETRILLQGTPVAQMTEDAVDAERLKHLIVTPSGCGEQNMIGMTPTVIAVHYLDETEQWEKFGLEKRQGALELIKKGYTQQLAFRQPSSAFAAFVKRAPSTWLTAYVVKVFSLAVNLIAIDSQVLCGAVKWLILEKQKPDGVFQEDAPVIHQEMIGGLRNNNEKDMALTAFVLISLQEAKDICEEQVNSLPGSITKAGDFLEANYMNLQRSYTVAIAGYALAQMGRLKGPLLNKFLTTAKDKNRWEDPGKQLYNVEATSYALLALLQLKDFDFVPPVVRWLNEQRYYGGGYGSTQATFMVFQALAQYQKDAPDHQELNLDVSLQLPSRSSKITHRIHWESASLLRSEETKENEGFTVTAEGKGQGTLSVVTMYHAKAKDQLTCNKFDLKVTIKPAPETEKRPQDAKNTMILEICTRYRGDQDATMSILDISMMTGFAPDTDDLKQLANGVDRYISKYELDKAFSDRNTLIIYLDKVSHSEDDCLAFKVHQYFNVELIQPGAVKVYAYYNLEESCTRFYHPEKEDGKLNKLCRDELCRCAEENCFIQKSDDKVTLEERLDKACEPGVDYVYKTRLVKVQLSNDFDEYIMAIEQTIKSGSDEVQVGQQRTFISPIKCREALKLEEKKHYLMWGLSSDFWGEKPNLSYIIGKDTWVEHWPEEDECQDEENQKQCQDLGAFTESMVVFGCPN
Sequence of C3b (P01024 23-667 limits assumed, chain 2 of 2): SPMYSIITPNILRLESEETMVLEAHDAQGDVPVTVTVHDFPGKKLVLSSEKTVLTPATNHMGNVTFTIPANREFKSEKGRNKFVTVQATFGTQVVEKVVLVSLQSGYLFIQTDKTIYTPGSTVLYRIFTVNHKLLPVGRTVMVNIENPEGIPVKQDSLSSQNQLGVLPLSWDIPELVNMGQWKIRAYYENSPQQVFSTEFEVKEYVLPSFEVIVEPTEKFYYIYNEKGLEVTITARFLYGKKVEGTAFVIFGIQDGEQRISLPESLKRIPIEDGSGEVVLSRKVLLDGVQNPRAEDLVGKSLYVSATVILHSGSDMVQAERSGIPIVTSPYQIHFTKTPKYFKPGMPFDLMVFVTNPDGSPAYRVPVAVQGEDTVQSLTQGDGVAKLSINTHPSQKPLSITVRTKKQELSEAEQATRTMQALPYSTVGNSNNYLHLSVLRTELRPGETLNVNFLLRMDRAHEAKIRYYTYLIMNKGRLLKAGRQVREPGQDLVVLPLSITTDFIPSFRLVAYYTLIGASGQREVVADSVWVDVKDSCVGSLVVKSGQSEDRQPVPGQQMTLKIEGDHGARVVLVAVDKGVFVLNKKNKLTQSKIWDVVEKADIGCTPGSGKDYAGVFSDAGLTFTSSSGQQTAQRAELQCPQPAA

This test addresses C3b (UniProt P01024 749-1663; P01024 23-667). The test is described as follows: cell-based or functional assay.
Turning to B1, the “IC50, dose-dependent increase of lysis in the CFH-dependent alternative pathway haemolytic assay (guinea-pig erythrocytes, 20% normal human serum plus CFH)” value amounted to 4.7 µM.
As to B2, the “IC50, dose-dependent increase of lysis in the CFH-dependent alternative pathway haemolytic assay (guinea-pig erythrocytes, 20% normal human serum plus CFH)” value is 0.7 µM.
Consider B3, for which the “IC50, dose-dependent increase of lysis in the CFH-dependent alternative pathway haemolytic assay (guinea-pig erythrocytes, 20% normal human serum plus CFH)” value stood at 3.6 µM.
